We go through 47 sequences from the NTF2 design screens of Basanta et al. (2020).

This data set in a line: protease stability score; higher = more stable; yeast display proteolysis, trypsin and chymotrypsin.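 Also: relative to predicted unfolded state with 0 unfolded-like and 1 meaning tenfold more protease.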
Consider “SEEDKHASKLADLVVEMWMTGDEEKLRHLADPDVKLHIEFNGVNRNHHGRDVMIEVMQRIREEIRIHDIKIHNWHTINGRWHIDSIVDGKFNGRRHETRTEVILEVIDGRIKVISFIFQ”, for which the protease stability score was 1.07.

“DEHEESAEWHSELMIRSMETGDEDLFEHLLDPRARFHINGQDIHGRDSISHFLSRRLKDMGFKHSSLKTVTIEVQGEWVYLRIKVILIVDGRHLDTEIIIISRKIDGVWHVHSMEIRFR”: the protease stability score worked out at 1.34. Sequence “NEDEESIRRAVEHWSKLILTGDESLLRQMADPNVRIQVGDKRIIGMDSLVKLMEDLGWEMEIRTKIRHTEIINGKMHTRTQLDIHFRQGDKKVDIHRDTEIVIEKVDGRWHIHSIRIE” registered a protease stability score of 0.752. In the case of “DETHRDMEEALRLFVRLLETGNEEILSKLVDPHVKIDFENHQHIGMEDWMKFMHHIRLDSMRIDDFKLIGDKARSDTTLDGNVNGRHFKFKTWIVAQKVDGRWLEHSVEYR” it was 0.885; in that of “DEEEKEAKHASERINHDFLTGDWKSLEKLADPETRLIVNGRDFHGRERVLHELVRFYHELGVNHFRIRDIRVIGNKIHVDNQIDVGEKHNEMHVISSKVNGRWVLHTVELN”, 1.23; in that of “SEKEKLMHDIIEKYMRNLETGNEEEYAKLADPNTRLHYGNKHRVGWKEIVHTLRHWRIHIRDSEIDSIHNIDGQAFVKGKRKGEINVDGVNIDTTFDVDIIINVFDGRLKEIEIRIH”, 0.068.

Take “DEEDKMAEFFMRLIFRAWLTGDEEELEKFMDPNTKHNLDIDGRNDHQIGRHEIVHHLKHFWRRYDHVQVKIRKYHIQGEKAHLHGHLILFIDGVEIRHNIEIRVVVINGRVHSVTMHIH”: the protease stability score amounted to 1.79. Consider “SDVDEKMETFLTLLFELIYTGDEEVIEKLFDPNVQLDVNGQIYHGMENVIEFVHQVKRHIRWKTVQIRHYRTQGEWAYSQVEVTGTVNGQSHRFEIHIDIWVINGKLKHIKKDIE”, for which the protease stability score turned out to be 2.01. The value for “SEEEEILETVAKKMVDILETGDEDKLTRLADPDVRHRIDVDGRDLSYHGREEINRFMHHWKREWRIDSITVHRVHVINGQIHIDIEVRETVGDKHVIVRRELIIVIVDGRVKRVEIIFR” was 0.253.

For the sequence “SDEEENLKEWVRLMYESARTGDEDSTSHLIDPNVRIHVNGRELHGRELVLEHLRRIDHVELRIHIREVETYDGRLKVEGELREIMIFNGKRVDLRIDTVFINLKVNGRWVLKEVHII”, the protease stability score came out at 1.34. “TEEQTHLIRLIEQFVRDEITGNWKSVLKLLDPEVKVILKINGREIHLHGREEITRWVHEWVRHIRVFIEIHHSRAFDGVVEMDTRIIIDIDGVHLSQETRINIYVVDGVLKSMEIHVK” yielded a protease stability score of 1.65. In the case of “HEDERLMKEALEMIIESFRTGDEHTIEELADPHARVIVGDKHHHGWHELLKRVLELGVKHVNVRDMRVIGDKLEVKLELHVGDKTFDSRLHVLKVNGKWHIQFVEIH” it was 1.75. In the case of “DERDEMTDHALQRVHEMLLTGDERLLSELFDPNARSQIGDKHVHGRDEVAKTFTEQLEKLGVDHVHFRSVDIQGEKLIIHMHFRVGDKHFQVIIIIVKVNGRWYWTNMHVILH” it was 1.1. In the case of “DEREEEAERILREWIKAVETGDFEQIMRYLDPNVRIIVNGKHHHGREILVHLIIRFLRELGADHITFHHDRIHLYDGVLVIDIHLEIRQGDKRYEFHEEIYIIKVNGRWIVRRVIIR” it was 2.8. The sequence “SEEERDAKEAVHLLLDMIDTGDFERITKYMDPNTRSRVGDKNDHGRHWLRHRRRHAGHDNIHVHLTRVDIFDGVVQINGRLDVDGKEIEVHWFIRKINGRWIVEEVHIQ” gave a protease stability score of 0.367. In the case of “SHHEEHLHEMLRLILEAWETGDEDFLEELADPRVQLIVNGKDIHGRHVFRTMLRTHIEQMRIKRVTPRRVRNYDGRVESDIEVDGIIDGQRRKYRTTWVVEIIDGRVESLSLHFI” it was 0.723. For “SETERYNEELLTKWFHAEHTGNFEMLQRLIDPHARIDINGVEHIGWRQFTKSLEDFGIDHIHHLKIDHFRVFNGRLFIDVTTDGTINGQRHKTKVLIRIVLYNGVIHEMSIEWV”, the protease stability score amounted to 1.33. The value for “DERDEYLHEWTRLLIELFETGNFEFLVEMMDPNVQIDIGDKHFIGWELAVHFLEEFLRQFKNARWEITRFRRYDGRIEMDTIMRINGREIKVKIIVIVIDGRVKSRHEEYR” was 0.595. “HEEEHEMRKLAHILFEVLLTGNWKLLAELADPDVLTHINGRDMHGMESELETWKHLRIRDMKIRHVDVQGDKVHLDTELEGEINGRRFQTRTHIHYLLVDGRTKHVKVQID” had a protease stability score of 1.51. The sequence “DEDHKWAKFMFEVFKKVVETGDEEVFKHLADPNVRMEVGDKEFIGREEFRRFLNELRIHHQRDTHIEIRSVGDKIEVLIDGETTIEVGDKTRDHRMRVILFTMKVDGRWLIRSIRFEIH” registered a protease stability score of 1.56. The value for “DEDERLEEEALRLLRHSLHTGDERIITELADPHARLEFNGREFHGREDFLRFIVHMRVRHEEEKSVRLQGDKVDVNWHMVVLFDGQLRRQDVRLILWKFNGRWHIKSIRIE” was 1.5; that for “DDRERLTKLMSDDFIFSMLTGDEHFMHELIDPHARFLFNGQVHHGWKTMEFWREHLGIDNIHLQIRISDLEIQGDKATVRIDGEVKQGDKSFRTRFIIKVDKIDGRWVIHELRIIVL” was 1.07; that for “SEEEELADIALREIIETLRTGNEELLDKLVDPHVKILFDGREFIGRKDYLRLLREIRIHHVTIEDMEVQGEKVHINMRVDGEINGRRNDYKVQLIALKFNGKWIIEHEHLH” was 1.3. The value for “SHEDRWIEHMVDLLEELFHTGDWEHLRHLFDPNTRSNINGKEFHGRDLAIKLVVEKMEFFKGARTDVEHRHVQGEKVELIFRLEYNGRRFHLSIRLQVVNGRVKEVNVKIDTE” was 1.67.

For the sequence “DELERDVKQVWDLLLESSRTGDEEVLDKMLDPNARMKVNGQESHGRHAVELLSERIDHIHHIEIERFRTQGNKIEIDIHIDGEVNGRRIRTHMHVIIRKIDGRWFVESWEMK”, the protease stability score worked out at 0.931. The value for “SEDEKVVKWASDVLLDYIRTGDWRSLEELIDPHARHDVNGVEIIGMEHILKHFMELRRRIDHIHLRVHHIRVFDGQIDLNGKLHVNINGREIELDTRVIALKVNGRWVNHIISIG” was 1.44; that for “SDLHHIVDNLLQEWLHARLTGDEDRLLELMDPDAREDVNGRTLVGREDSWKIMLELRFRVEHWHIHRLEIQGDKIDMDIEFDVRFDVDGVPYRLRTRQKIHIDVYNGKIQRLQVHIL” was 0.325; that for “SEKEDIERKWAERTLETIETGDEHTRRELLDPHVRIIINGKDHHGREFAEEEWRRLGVDHFRTHEYEIQGNFLHVRGEMEIDGKRVEVILNFTIVDGRIKQIEMVYL” was 2.03. The value for “DEETEIEKHAMEHIFRANETGNWREILEMIDPNVKIEYGDKERHGMTIYLEILELWGITKIHLDIQSIRVINGRMDIHGRIVFNGKTHTVDLHLLKVDGRWILTEIRVR” was 1.3. The value for “SEEEEAARHVLEEWLRSIRTGDEEFTERLLDPEARFHVNGVEIIGREHIIRRLREIRIHDIKMDVREIRIVDGRISIDVTYRIDGEVNGVKVDTSHEVRLVFVKINGRWLNRKEEVR” was 1.66; that for “SEDERDARELMEIEIRAKRTGDEDTLERLMDPHMRTDINGKELVGREVLEWERKRVDHIHDFRIHHVTSVNGRLDIDASLRLTVDGVEETMRFRILTRKVNGRWIVEFLIVK” was 0.985; that for “DKREHDMERWFKLWWHTLMTGDEDLYHELLDPNARIVQGEKHHHGRENLVEYFTHLVEEMRIRHFHLHDMRFQGEKNDIDGHIDITINGQRHDTRFTIHLLIVNGKLRHVELRIL” was 0.506. “SEETEETERVEREISHARLTGDEQFLKEMLDPNTRLLINGVILVGREALEHFVREMRVERVEVKDVRVQGDKLHIDTTSDVHYNGRRWTIKTHLIMVKVDGRWLMESVEFK” yielded a protease stability score of 1.62. “DEHHEILREASELFIKAWLTGDEDTMQEMMDPHTRVVFNGRTHHGWTFASEILERIKNIRIQIDDVRHQGEYVEIHFKLHIDGVRWNTKIHLHVIDGKLKRIQHTTE” yielded a protease stability score of 1.01.

For the sequence “DDDDRKNHEIAKWIWELIETGDEDILQHLADPDYRLVLDFDGVHIHRHGMTRIYHTLERVYREFGADHIHIRSITNINGVNIIDGEVQVNGKHYRLVLIFIVVNGRIKEIRVKKR”, the protease stability score worked out at 1.54. In the case of “SEDDEDNERWFERLLHSLHTGNEELTRKLMDPNVRVDFNGKDLHGMDHMVKLVRHLRNRVDHLHMLVHHSDNINGVAHNDVTLELRYGDKTERLRVRIVASKVDGRWILKSVEID” it was 1.28; in that of “DETHEEHNRFAEEYVHALHTGDEDRLRELMDPNVRFILIIDGKEVRLHGWELLLRVIREFWERFKNIRIFIRDIDLQGEKIRLETEVNVDGVDEHWRINMVVVNGRIKSLIIEQR”, 2.32; in that of “DEWHELANEIMQLLIELWLTGDEEIVLKLADPNVKVKIIVNGRTYSNHGREMFHDWHRRVDYIHEIRIKDVTFVNGVVISDTHVDGTINGVRMRTDTKMIVVVVNGKLKSAEYRVE”, 1.11. In the case of “REEEEHARRLVEMYFHALLTGDEDLLKSLLDPNVKLQIGDKVHVGREELIRSLRELWDKLGIDHITLEEYRIEIQGNKIRLKLYMHLHVNGRLLQVTTDILVDKVDGRWVIQEIRVHEA” it was 1.91; in that of “DEHEEISRRLAEFENEWINTGDEESFARNADPDVRIHVGEFHSHGREEMIRILKEFFRWLGVKHFRPTHIEIQGEKVIIYLEWHFDGRTHRIQIISVVVDGRRKSFQVHKL”, 0.185; in that of “REEEEQLKHFIEHRLHNFLTGNEERLHHLADPNMRIDINGKELHGREAYIYEFNRLGWEIKHIDIEHLEVQGDKVDVDLRFKGHIDGKTRHIKSKLIVLKVDGKWFDKDYFII”, 1.13.

“DEYERIWRDLVKLILHAHKTGDEDHLKRLMDPNAKIHVGEFEMIGRTDEELWKRLLGIERFHIHRIDIRTISIFDGRLHIEVDSDGQINGKRVEHHIEITLVIIDGKLHSVSHTLK” yielded a protease stability score of 1.1. On to “EEMERDIKHAVEVMIRFWETGDERLLTELADPDTKSKIDGRTFHGREDIHKLFHSVIEKVKNIRIEFKRISVQGDKAKIDGTNNFNGREIKTDITLWKFDGRWILESIEIG”, for which the protease stability score was 1.43.

“DEEERALIVLLLLFEESMRTGDPRLIKELMDPHMRLRFENRHYHGRDEFMEWFKQVDHIFIDRVNIRDVRLIGEWVRIDVEILGTHEQGDKQFEFRRRTHLVVRKVDGRWIMHHVEIR” returned a protease stability score of 1.64. On to “DEEEQEFREFMKHVLEMIRTGDEDQWRKLMDPDARLIVDGKDIHGREEVVRLWSEITRHARFRDRKIHSMEIQGDKVRVDGRVLGEFNGVDRQTESHIIFHKINGRWKIHQEFIV”, for which the protease stability score is 0.882. Sequence “HEIEEIARHINNIWEERSRTGDFRHFTTLLDPHARIDINGVELHGRELWMSRVYHHFQSHGIEYSVHTKHIEVFDGRVHLHGELFFHFNGVDITIRTHHTMRKVDGRWFVEQIIVH” registered a protease stability score of 0.468. In the case of “SEEEHEADLLHKELWESWHTGDEKHLTNLMDPNVRLQIGDKHYVGRENALNVLHFIRRKLGIKYFELESVTHHEINGRIHTIFDGSILINGKTVKDKIEVDTEKYNGQWRITQINIDFR” it was 2.24.
